Changes are numbered by the printed parent chain.
Legend:
[1] = biological target: T1, recombinant human LAG-3-his (#16498-H08H, Sino Biological Inc.) (human, UniProt P18627 23-450); assay: scFv phage ELISA on coated antigen, A490
T1 construct: Bought; also called LAG-3-His (WT); not shown: His tag at the carboxy terminal
T1 sequence (looked up): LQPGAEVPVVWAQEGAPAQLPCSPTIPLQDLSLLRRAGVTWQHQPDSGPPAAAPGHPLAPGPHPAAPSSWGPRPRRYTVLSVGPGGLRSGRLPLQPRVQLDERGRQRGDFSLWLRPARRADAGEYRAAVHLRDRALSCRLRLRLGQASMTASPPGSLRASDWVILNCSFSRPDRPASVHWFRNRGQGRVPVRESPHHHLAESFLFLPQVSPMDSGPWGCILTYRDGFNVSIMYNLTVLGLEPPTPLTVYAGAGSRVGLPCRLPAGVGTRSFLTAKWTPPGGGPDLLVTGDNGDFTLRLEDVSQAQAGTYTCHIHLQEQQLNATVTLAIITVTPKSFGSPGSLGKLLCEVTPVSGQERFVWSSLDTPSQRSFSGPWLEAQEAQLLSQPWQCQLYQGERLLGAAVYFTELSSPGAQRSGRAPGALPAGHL

[2] = biological target: T2, human LAG-3 overexpressed on cells (human, UniProt P18627 23-525); assay: flow cytometry, HEK293E cells overexpressing LAG-3, antibody 2 µg/ml
T2 construct: whole, on cells; also called HEK293E-hLAG3; hLAG3 (Human)
T2 sequence (looked up): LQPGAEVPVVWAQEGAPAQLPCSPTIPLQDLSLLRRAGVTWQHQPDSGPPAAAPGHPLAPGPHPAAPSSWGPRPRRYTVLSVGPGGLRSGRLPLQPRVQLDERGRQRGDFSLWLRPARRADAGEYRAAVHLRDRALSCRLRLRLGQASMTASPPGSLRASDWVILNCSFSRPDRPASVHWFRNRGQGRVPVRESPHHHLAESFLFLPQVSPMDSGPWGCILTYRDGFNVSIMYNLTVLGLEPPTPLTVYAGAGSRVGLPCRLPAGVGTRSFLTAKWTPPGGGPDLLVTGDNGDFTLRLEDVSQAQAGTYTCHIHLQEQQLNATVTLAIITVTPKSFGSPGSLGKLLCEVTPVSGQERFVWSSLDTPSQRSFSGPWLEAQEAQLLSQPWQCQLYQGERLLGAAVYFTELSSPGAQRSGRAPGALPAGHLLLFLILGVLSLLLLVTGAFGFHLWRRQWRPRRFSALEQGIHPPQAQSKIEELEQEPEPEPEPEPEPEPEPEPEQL
Description: (§1) After that, the cells were washed three times with PBS containing 2% FBS and then subjected to the reaction for 30 minutes at 4° C. with anti-human IgG antibody (#FI-3000, Vectorlabs) linked with FITC fluorescent. The cells were washed by the same washing process as above followed by suspension in 0.2 ml PBS containing 2% FBS. The cells were then analyzed by FACSCanto II flow cytometer.

[3] = biological target: T3, mouse LAG-3 overexpressed on HEK293E cells (mouse, UniProt Q61790 24-521); assay: flow cytometry, HEK293E cells overexpressing mouse LAG-3
T3 construct: whole, on cells; also called HEK293E-mLAG3; mLAG3 (Mouse)
T3 sequence (looked up): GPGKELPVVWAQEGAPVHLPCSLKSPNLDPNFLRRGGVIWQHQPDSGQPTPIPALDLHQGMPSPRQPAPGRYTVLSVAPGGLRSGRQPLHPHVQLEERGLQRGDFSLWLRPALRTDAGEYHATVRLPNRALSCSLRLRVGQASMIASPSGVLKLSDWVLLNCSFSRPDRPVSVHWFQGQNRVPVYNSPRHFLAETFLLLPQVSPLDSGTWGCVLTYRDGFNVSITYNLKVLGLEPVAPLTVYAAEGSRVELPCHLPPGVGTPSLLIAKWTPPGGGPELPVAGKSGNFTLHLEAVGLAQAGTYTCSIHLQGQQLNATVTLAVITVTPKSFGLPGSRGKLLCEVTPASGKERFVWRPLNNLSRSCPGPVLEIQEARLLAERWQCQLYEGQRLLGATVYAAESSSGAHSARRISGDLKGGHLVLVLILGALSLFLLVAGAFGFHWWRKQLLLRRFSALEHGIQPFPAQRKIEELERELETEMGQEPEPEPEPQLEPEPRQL
Description: as §1

[4] = biological target: T2, human LAG-3 overexpressed on cells; assay: flow cytometry on HEK293E-hLAG3 cells, MFI, fitted curve
Description: as §1

[5] = biological target: T3, mouse LAG-3 overexpressed on HEK293E …; assay: flow cytometry on HEK293E-mLAG3 cells, MFI
Description: as §1

[6] = biological target: T4, recombinant mouse LAG-3 fused with mouse Fc (mLAG-Fc) (mouse, UniProt Q61790 24-442, limits assumed); assay: BLI (Octet QKe)
T4 construct: also called mouse LAG-3 antigen; not shown: mouse Fc (mFc) at the carboxy terminal
T4 sequence (looked up): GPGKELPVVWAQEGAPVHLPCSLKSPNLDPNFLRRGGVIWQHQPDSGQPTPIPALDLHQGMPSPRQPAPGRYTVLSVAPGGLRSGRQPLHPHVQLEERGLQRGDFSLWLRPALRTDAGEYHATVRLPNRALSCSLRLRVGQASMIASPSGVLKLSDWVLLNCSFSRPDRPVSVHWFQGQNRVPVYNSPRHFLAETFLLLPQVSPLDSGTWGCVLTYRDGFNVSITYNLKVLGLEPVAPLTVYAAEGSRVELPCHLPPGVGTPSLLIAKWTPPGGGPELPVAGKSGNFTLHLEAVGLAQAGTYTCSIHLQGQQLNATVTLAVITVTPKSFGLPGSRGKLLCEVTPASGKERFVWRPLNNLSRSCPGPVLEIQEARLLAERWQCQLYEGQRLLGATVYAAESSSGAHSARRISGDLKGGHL

[7] = biological target: T5, monkey (Rhesus monkey) LAG-3 overexpressed on HEK293E cells (Rhesus monkey, UniProt A0A5F8A874 23-533); assay: flow cytometry on HEK293E-MrhLAG3 cells, MFI, fitted curve
T5 construct: whole, on cells; also called HEK293E-MrhLAG3; MrhLAG3 (Rhesus Monkey)
T5 sequence: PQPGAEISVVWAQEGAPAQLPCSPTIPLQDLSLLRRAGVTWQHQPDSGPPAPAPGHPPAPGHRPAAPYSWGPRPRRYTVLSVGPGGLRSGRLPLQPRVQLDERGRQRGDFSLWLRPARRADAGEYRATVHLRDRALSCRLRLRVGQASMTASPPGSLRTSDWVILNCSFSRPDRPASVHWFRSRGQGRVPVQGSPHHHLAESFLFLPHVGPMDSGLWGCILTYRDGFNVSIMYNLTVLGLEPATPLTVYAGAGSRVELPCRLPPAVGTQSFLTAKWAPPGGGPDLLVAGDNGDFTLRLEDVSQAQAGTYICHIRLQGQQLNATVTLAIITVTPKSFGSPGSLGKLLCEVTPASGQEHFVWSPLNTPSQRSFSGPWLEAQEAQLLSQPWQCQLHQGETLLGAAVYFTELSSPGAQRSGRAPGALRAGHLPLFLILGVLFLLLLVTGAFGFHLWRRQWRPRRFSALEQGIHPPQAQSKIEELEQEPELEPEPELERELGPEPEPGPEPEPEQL
Description: as §1

[8] = biological target: T2, human LAG-3 overexpressed on cells; assay: cell-based or functional assay
[9] = biological target: T6, recombinant monkey LAG-3 fused with mouse Fc (MrhLAG-3-mFc) (monkey); assay: Octet biolayer interferometry, 1:1 global fit
T6 construct: also called monkey LAG-3 antigen
Description: (§2) After stabilization for 10 minutes in a buffer (#18-1042, Fortebio Inc.), immobilized antigen or antibody was washed out for 5 minutes with the buffer. The antibody or antigen desired for binding was prepared at different concentrations (0.94-60 nM) in a 96-well plate (#655209, Greiner Bio-One, USA) and subjected to the association reaction for 10 minutes followed by dissociation reaction for 10 minutes or 30 minutes.

[10] = biological target: T7, recombinant human LAG-3 extracellular domain fused with mouse Fc (hLAG-3-mFc) (human, UniProt P18627 29-450); assay: Octet biolayer interferometry, 1:1 global fit
T7 construct: range 29-450; Made in HEK293F cells; also called human LAG-3 antigen; wild-type (WT) LAG-3; not shown: mouse Fc (mFc) at the carboxy terminal
T7 sequence (looked up): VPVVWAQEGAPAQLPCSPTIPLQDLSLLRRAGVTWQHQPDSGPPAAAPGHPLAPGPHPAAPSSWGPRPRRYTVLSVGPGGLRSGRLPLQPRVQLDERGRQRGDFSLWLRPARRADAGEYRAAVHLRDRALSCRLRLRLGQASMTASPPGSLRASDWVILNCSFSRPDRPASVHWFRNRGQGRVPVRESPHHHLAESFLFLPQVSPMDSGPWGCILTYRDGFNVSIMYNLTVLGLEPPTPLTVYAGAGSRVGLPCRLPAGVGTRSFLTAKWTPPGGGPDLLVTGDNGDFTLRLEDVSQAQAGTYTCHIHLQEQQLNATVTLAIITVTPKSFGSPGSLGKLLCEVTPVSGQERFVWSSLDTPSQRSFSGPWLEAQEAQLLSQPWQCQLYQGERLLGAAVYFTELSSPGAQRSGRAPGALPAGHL
Description: as §2

[11] = biological target: T6, recombinant monkey LAG-3 fused with …; assay: BLI (Octet QKe), 1:1 global fit
Description: as §2

[12] = biological target: T7, recombinant human LAG-3 extracellular …; assay: BLI (Octet QKe), 1:1 global fit
Description: as §2

[13] = biological target: T3, mouse LAG-3 overexpressed on HEK293E …; assay: flow cytometry on HEK293E-mLAG3 cells, MFI, fitted curve
Description: as §1

[14] = biological target: T4, recombinant mouse LAG-3 fused with …; assay: BLI (Octet QKe), 1:1 global fit
Description: as §2

B1: LAG3-1E09_AM_2E04 (antibody, V domains shown)
VH: EVQLVESGGDLVKPGGSLRLSCAASGFSFNDHYMNWVRQAPGKGLEWVAYIDTSATYIYYADSVKGRFTISRDNAKNSLYLQMNSLRAEDTAVYYCARDNWGSLDYWGQGTLVTVSS
VL: DIQMTQSPSSLSASVGDRVTIICRASQSISNYLNWYQQEPGKAPKLLIYDASNLESGVPSRFSGSGSGTDFTLTISSLQPEDFATYYCQQSYSTPYTFGQGTKVEIK
notes: Tested as full IgG
binding result [1]: binds | binding result [2]: binds | binding result [3]: no binding (tested: 2 µg/ml)

B2: LAG3-1E09_FR_1E05 (antibody, V domains shown)
VH: B1 VH with D10G, K13Q, N30S
VL: DIQMTQSPSSLSASVGDRVTITCRASQSISSWLAWYQHKPGKAPKLLIYDASNLETGAPSRFSGSGSGTDFTFTIYSLQPEDVATYYCQQYDTVPPTFGPGTKVDIK
notes: Tested as full IgG
EC50 [4]: 0.0926 µg/mL | binding result [5]: no binding (tested: Log10[Ab] about 0.8, µg/ml) | binding result [6]: no binding | EC50 [7]: 0.301 µg/mL | EC50 (µg/ml), LAG3/MHC class II Blockade bioassay [8]: 0.0938 µg/mL | koff [9]: 3.7e-05 s⁻¹ | kon [9]: 81100 M⁻¹ s⁻¹ | koff [10]: 1.03e-05 s⁻¹ | kon [10]: 114000 M⁻¹ s⁻¹ | Kd [11]: 0.456 nM | Kd [12]: 0.0906 nM

B3: LAG3-1E09_AM_2H01 (antibody, V domains shown)
VH: B1 VH with K13Q, S28T, N30S
VL: DIQMTQSPSSLSASVGDRVTITCQASQDISNYLNWYQQKPGKAPNLLIYDASTLETGVPSRFSGSGYGTDFTLTISGLQPDDFALYYCQQSYSTPYSFGPGTKVEIK
notes: Tested as full IgG
EC50 [4]: 0.0297 µg/mL | EC50 [13]: 1.74 µg/mL | EC50 [7]: 0.156 µg/mL | EC50 (µg/ml), LAG3/MHC class II Blockade bioassay [8]: 0.0822 µg/mL | koff [9]: 3.23e-05 s⁻¹ | kon [9]: 51400 M⁻¹ s⁻¹ | koff [10]: 1.61e-05 s⁻¹ | kon [10]: 119000 M⁻¹ s⁻¹ | Kd [11]: 0.629 nM | Kd [12]: 0.136 nM | Kd [14]: 2.62 nM
